Target: T1, human ApoC3 (huApoC3), native protein purified from human serum (human, UniProt P02656 21-99)
T1 construct: Athens Research and Technology; randomly biotinylated in some assays; also called Apolipoprotein C3
Experiment: ELISA, biotinylated huApoC3 captured on neutravidin, scFv periplasmic extract
Experimental: The antibody clones selected from the scFv phage display library constructed in Example 1 were analyzed by a ELISA assay with biotinylated ApoC3 captured by […] which was coated on plates. Neutravidin (Fisher Scientific LDAcat#: W9995L) diluted in PBS (pH 7.4) at a concentration of 2-5 μg/ml (100 μl/well) was incubated in Microtiter Immunoassay Maxisorp 96-well plates (NUNC cat#:1456537 or similar) at 4° C. overnight. The coated plates were washed three times with 250 μl/well PBS-T to remove the excess of the unbound neutravidin. After washing, 250 μl 1% (m/v) of casein solution prepared in PBS was added to each coated well for blocking, and the plates were incubated for 1 to 2 hours at room temperature on a plate shaker (TitraMax 1000, Heidolph or similar). After blocking, the plates were washed three times to remove the excess of the blocking solution with 250 μl/well PBS-T. Biotin groups were introduced at random sites of human native ApoC3 protein (Athens Research and Technology). […] The absorbance of the end-product is measured at 450 nm using a Microplate spectrophotometer.

T1 sequence (P02656 21-99): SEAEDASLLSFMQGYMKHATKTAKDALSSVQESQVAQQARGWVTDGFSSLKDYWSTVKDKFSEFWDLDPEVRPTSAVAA

binding result | Binder
binds | 12G8 scFv (scFv, V domains shown, scFv (crude periplasmic extract) with C-terminal c-myc tag) VH: QLQLVESGGGLVQPGGSLRLSCAASGFTFDDYAMSWVRQAPGKGLEWVSAIRWNGDTYYAESMKGRFDMSRDNAKNTLYLQMNSLKSEDTAVYYCAKHRPGGALDTWGQGTLVTVSS VL: QAVLTQPSAVSVSLGQTARITCQGGNFGNFYASWYQQKPGQAPVLVIYKDSERPSGIPERFSGSSSGDTATLTISGAQAEDEADYYCQSGSSSDNVVFGGGTHLTVL
binds | 12D7 scFv (scFv, V domains shown, scFv (crude periplasmic extract) with C-terminal c-myc tag) VH: ELQLVESGGDLVQPGGSLRLSCAASGFTFDDYAMSWVRQAPGKGLEWVSAITSNGKRTDYAESMKGRFTISRDNSKNTLYLEMNSLKSEDTAVYYCTKGPPHYIPIPSMTPRDSWGQGTQVTVSS VL: SSALTQPSAVSVSLGQTARITCQGGTLGRYYGSWYQQKPAQAPVLLIYGDNSRPSGIPERFSGSKSGDTATLTISGTQAEDEADYYCESFDFSGNAAVFGGGTHLTVL

From patent US20190241648A1 (STATEN BIOTECHNOLOGY B V, published 2019)
